Assay [1] has as its target recombinant purified FRα (ECL assay calibrator) (human) (UniProt P15328). The experiment in a line: ECL sandwich capture 19D2.G9 / detection 6A2.G7; calibrator incubated overnight with 10 µg/mL MORAb-003.
Assay [2] has as its target endogenous folate receptor alpha in human serum and plasma samples (human) (UniProt P15328). The assay is described as follows: ECL sandwich capture 1A8.G11.E7 / detection 24H8.F3; serum incubated overnight with 10 µg/mL MORAb-003.
Assay [3] has as its target recombinant purified FRα (ECL assay calibrator) (human) (UniProt P15328). The assay is described as follows: ECL sandwich capture 30G6.G6.G4.E9 / detection 1D2.G8.G10; calibrator incubated overnight with 10 µg/mL MORAb-003.
For assay [4] the target is unchanged. The assay is described as follows: ECL sandwich capture 1C6.E12.G8 / detection 19D4.B7; calibrator incubated overnight with 10 µg/mL MORAb-003.
Assay [5] has the same target. The experiment in a line: ECL sandwich capture 30G6.G6.G4.E9 / detection 1C6.E12.G8; calibrator incubated overnight with 10 µg/mL MORAb-003.
The target is the same in assay [6]. The assay is described as follows: ECL sandwich capture 30G6.G6.G4.E9 / detection 6A2.G7; calibrator incubated overnight with 10 µg/mL MORAb-003.
Assay [7] shares this target. The assay is described as follows: ECL sandwich capture 19D4.B7 / detection 19D2.G9; calibrator incubated overnight with 10 µg/mL MORAb-003.
For assay [8], the target named is endogenous folate receptor alpha in human serum and plasma samples (human) (UniProt P15328). The assay is described as follows: ECL sandwich capture 19D4.B7 / detection 2F11.F8; serum incubated overnight with 10 µg/mL MORAb-003.
Chain of endogenous folate receptor alpha in human serum and plasma samples (human) (P15328 25-234 limits assumed, form in doubt): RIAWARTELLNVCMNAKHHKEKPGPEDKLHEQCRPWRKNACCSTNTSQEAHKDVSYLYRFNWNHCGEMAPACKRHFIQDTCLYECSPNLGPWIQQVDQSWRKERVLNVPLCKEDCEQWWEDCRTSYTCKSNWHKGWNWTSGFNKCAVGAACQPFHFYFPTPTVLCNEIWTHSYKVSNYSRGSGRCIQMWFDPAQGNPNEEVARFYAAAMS
Assay [9] has the same target. The assay is described as follows: ECL sandwich competition; competitors 24H8.D3 capture / 19D4.B7 detection; serum samples; MORAb-003 100 µg/mL.
In assay [10] the target is recombinant purified FRα (ECL assay calibrator) (human) (UniProt P15328). The experiment in a line: ECL sandwich capture 24H8.F3 / detection 30G6.G6.G4.E9; calibrator incubated overnight with 10 µg/mL MORAb-003.
Chain of recombinant purified FRα (ECL assay calibrator) (human) (P15328 25-234 limits assumed): as the sequence (P15328 25-234 limits assumed, form in doubt) above
Assay [11] has the same target. The assay is described as follows: ECL sandwich capture 24H8.F3 / detection 19D4.B7; calibrator incubated overnight with 10 µg/mL MORAb-003.
Assay [12] has the same target. The assay is described as follows: ECL sandwich capture 30G6.G6.G4.E9 / detection 5C12.H8; calibrator incubated overnight with 10 µg/mL MORAb-003.
Assay [13] shares this target. The assay is described as follows: ECL sandwich competition; competitors 9F3 capture / 24F12 detection; FRα standard STD06; MORAb-003 10 µg/mL.
Assay [14] shares this target. The experiment in a line: ECL sandwich capture 24H8.D3 / detection 6A2.G7; calibrator incubated overnight with 10 µg/mL MORAb-003.
Assay [15] shares this target. The assay is described as follows: ECL sandwich capture 19D4.B7 / detection 24H8.D3; calibrator incubated overnight with 10 µg/mL MORAb-003.
For assay [16] the target is unchanged. The assay is described as follows: ECL sandwich competition; competitors 9F3 capture / 24F12 detection; FRα standard STD08; MORAb-003 50 µg/mL.
Assay [17] deals with endogenous folate receptor alpha in human serum and plasma samples (human) (UniProt P15328). The experiment in a line: ECL sandwich competition; competitors 24H8.D3 capture / 19D4.B7 detection; plasma of sample #DLSO-015; MORAb-003 100 µg/mL.
Assay [18] addresses recombinant purified FRα (ECL assay calibrator) (human) (UniProt P15328). The assay is described as follows: ECL sandwich capture 19D4.B7 / detection 6A2.G7; calibrator incubated overnight with 10 µg/mL MORAb-003.
For assay [19] the target is unchanged. The experiment in a line: ECL sandwich capture 30G6.G6.G4.E9 / detection 26A9.C4; calibrator incubated overnight with 10 µg/mL MORAb-003.
Assay [20] shares this target. The assay is described as follows: ECL sandwich capture 24H8.D3 / detection 30G6.G6.G4.E9; calibrator incubated overnight with 10 µg/mL MORAb-003.
Assay [21] has as its target endogenous folate receptor alpha in human serum and plasma samples (human) (UniProt P15328). The assay is described as follows: ECL sandwich capture 19D4.B7 / detection 1D2.G8.G10; serum incubated overnight with 10 µg/mL MORAb-003.
Assay [22] deals with recombinant purified FRα (ECL assay calibrator) (human) (UniProt P15328). The experiment in a line: ECL sandwich competition; competitors 9F3 capture / 24F12 detection; FRα standard STD05; MORAb-003 10 µg/mL.
In assay [23] the target is endogenous folate receptor alpha in human serum and plasma samples (human) (UniProt P15328). The assay is described as follows: ECL sandwich competition; competitors 24H8.D3 capture / 19D4.B7 detection; plasma samples; MORAb-003 100 µg/mL.
Assay [24] has the same target. The assay is described as follows: ECL sandwich capture 19D4.B7 / detection 24H8.F3; serum incubated overnight with 10 µg/mL MORAb-003.

B1: farletuzumab (MORAb-003) (antibody, part only; not given: Constant regions, V domains shown, not shown: another chain or arm of the molecule)
VH: EVQLVESGGGVVQPGRSLRLSCSASGFTFSGYGLSWVRQAPGKGLEWVAMISSGGSYTYYADSVKGRFAISRDNAKNTLFLQMDSLRPEDTGVYFCARHGDDPAWFAYWGQGTPVTVSS
VL: DIQLTQSPSSLSASVGDRVTITCSVSSSISSNNLHWYQQKPGKAPKPWIYGTSNLASGVPSRFSGSGSGTDYTFTISSLQPEDIATYYCQQWSSYPYMYTFGQGTKVEIK
Take B1: the Drug Suppression of Cal Signal at 500 pg/mL in assay [1] was -4%; in assay [3], 8%; in assay [4] it was -11%; in assay [5], -7%; in assay [6] it was -5%; in [7], -19%. The Drug Suppression of Cal Signal at 500 pg/mL in assay [10] is -6%; in assay [11], 9%; in assay [12], -7%; in [14], -15%; in assay [15], -6%; in assay [18], -9%. Moreover, the Drug Suppression of Cal Signal at 500 pg/mL in assay [19] was -11%; in [20] it was 0%. For the same molecule, the Drug suppression of serum in assay [2] was -61.3%; in assay [8], 0.82%; in [21], -2.12%; in [24] it was -10.6%. Besides, the percent inhibition (median, serum) in [9] came out at 3%. Moreover, the % of signal without MORAb-003 (MORAb-003 interference) was 103% in assay [13], 115% in assay [16] and 71% in assay [22]. Also, the percent inhibition (sample #DLSO-015, plasma) in assay [17] is 10%. The percent inhibition (median, plasma) in assay [23] was 4%.

The values above are taken from patent publication US20180148504A1.
